Where a chain is given by its changes, count along the chain named.
B1: antibody 303 (antibody, V domains shown)
VH: QVQLVESGGGVVQPGRSLRLSCAASGFNLSSYAMHWVRQASGKGLEWVSLISYDGSIKYYADSVKGRFTVSGDNSKNMLFLQMNSLRADDSALYYCVRGGVSGPNAFDIWGQGTTVTVSS
VL: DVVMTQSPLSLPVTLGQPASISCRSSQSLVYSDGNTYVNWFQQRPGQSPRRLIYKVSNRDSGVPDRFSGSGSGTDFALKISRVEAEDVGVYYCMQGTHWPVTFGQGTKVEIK
B2: antibody 300 (antibody, V domains shown)
VH: QVQLVESGGGVVQPGRSLTLSCAASGFTFSSYAMHWVRQAPGKGLEWVALISYDGNNKYYADSVKGRFTFSRDNSKNTLYLQMNSLRAEDTAVYYCARTNSGSYRTAFDYWGQGTLVTVSS
VL: DIQMTQSPSTLSASVGDRVTITCRASQSISIWLAWYQQKPGKAPKLLIYKASSLESGVPSRFSGSGSGTEFTLTISSLQPDDFATYYCQQYNSLWTFGQGTKVEIK
B3: antibody 301 (antibody, V domains shown)
VH: QVQLVQSGAEVKKPGASVKVSCKVSGYTLTELSMHWVRQAPGKGLEWMGGFDPEDGETIYAQKFQGRVTMTEDTSTDTAYMELSSLRSEDTAVYYCATAFCGGDCYPPDALDIWGQGTMVTVSS
VL: DIQMTQSPSSVSASVGDRVTITCRASQGISSWLAWYQQKPGKAPKLLIYAASSLQSGVPSRFSGSGSGTDFTLTISSLQPEDFATYYCQQANSFPLTFGGGTKVEIK
B4: antibody 291 (antibody, V domains shown)
VH: QVQLVESGGGVVQPGRSLRLSCAASGFTFSSYAMHWVRQAPGKGLEWVAVISYDGSNKYYADSVKGRFTISRDNSKNTLYLQMNSLRAEDTAVYYCARASGGSYFGGMDVWGQGTTVTVSS
VL: QSALTQPASVSGSPGQSITISCTGTSSDVGGYNYVSWYQQHPGKAPKLMIYEVSNRPSGVSNRFSGSKSGNTASLTISGLQAEDEADYYCSSYTSSSTLYVFGTGTKVTVL
B5: antibody 258 (antibody, V domains shown)
VH: QVQLQESGPGLVKPSETLSLTCTVSGGSISSYYWSWIRQPAGKGLEWIGRIYTSGSTNYNPSLKSRVTMSVDTSKNQFSLKLSSVTAADTAVYYCAAGYGSIDYWGQGTLVTVSS
VL: not shown
B6: antibody 387 (antibody, V domains shown)
VH: QVQLVESGGGVVQPGRSLRLSCAASGFTFSSYGMHWVRQAPGKGLEWVAVISYDGSNKYYADSVKGRFTISRDNSKNTLYLQMNSLRAEDTAVYYCAKDDTKNYGDLDIDYWGQGTLVTVSS
VL: SYELTQPSSVSVSPGQTARITCSGDVLAKKYARWFQQKPGQAPVLVIYKDSERPSGIPERFSGSSSGTTVTLTISGAQVEDEADYYCYSAADNNLGVFGGGTKLTVL
B7: antibody 370 (antibody, V domains shown)
VH: QVQLVESGGGVVPPGRSLSLPCAASGFTFSAYAMHWLRQAPGKGLEWVAVISYDGTVKYVADSVRGRFTISRDNSNNTLYLQMTSLRSDDTAVYYCARDLGALAAAPTVYFVHWGQGTLVTVSS
VL: SYVLTQPPSVSVAPGKTATITCAGEDIGRKSVHWYQQKPGQAPVLVIFYYSDRPSGIPDRFSGSVSGNTATLTIGRVEAGDEADYFCQVWDRTTNHVIFGGGTKVTVL
B8: antibody 368 (antibody, V domains shown)
V domain 1: QITLKESGPTLVKPTETLTLTCAFSGFSLTKTGEAAGWIRQAPGRALEWVTVIFWDDDKRYSPSLQNRLTVTKDTSKNVVVLTMTNVDPVDTATYFCWAMGGPGKEFFGQGTRVAVSS
V domain 2: QSVLTQPPSVSGAPGQRVTVSCTGTSSSIGPYSDVHWYQHIPGKAPRLLIFGTSNRPSGVPARFSGSKSGSSASLVIAGLQAEDEADYYCQSYDSSLGEIYVFGTGTTVTVL
B9: antibody 381 (antibody, V domains shown)
VH: QVQLVESGGGVVQPGRSLRLSCAASGFTFSSYAMHWVRQAPGKGLEWVAVISYDGSNKYYADSVKGRFTISRDNSKNTLYLQMNSLRAEDTAVYYCARDRQYYDILTGYYLPTSEYYFDYWGQGTLVTVSS
VL: B3 VL with L96P
B10: antibody 509 (antibody, V domains shown)
VH: B1 VH with A61T, M78T, A106S, I109L
VL: DVVMTQSPLSLPVTLGQPASISCRSSQSLVYSDGNTYVNWFQQRPGQSPRRLIYKVSIRASGVPDRFSGSGSGTDFALKISRVEAEDVGVYYCMQGTHWPVTFGQGTKVEIK
B11: antibody 476 (antibody, V domains shown)
VH: QVQLVQSGSELKKPGASVKVSCKASGYTFTSYAMNWVRQAPGQGLEWMGWINTNTGNPTYAQGFTGRFVFSLDTSVSTAYLQISSLKAEDTGVYYCARDHELPNSSSWFGHFEYWGQGTLVTVSS
VL: SYELTQPPSVSVSPGQTARITCSGDALPKQYAYWYQQKAGQAPVLVIYKDSERRSGIPERFSGSSSGTTVTLTISGVQAEDEADYYCQSADSSGTSVVFGGGTKLTVL
B12: antibody 492 (antibody, V domains shown)
VH: B6 VH with D100G, T101I, K102L, N103W, Y104W, G105W, D106W, L107G, D108Y, I109F
VL: QSVLTQPPSVSGAPGQRVTISCTGSSSNIGAGFDVHWYQQLPGTAPKLLIYGNSNRPSGVPDRFSGSKSGTSASLAITGLQAEDEADYYCQSYDSSLSVVFGGGTKLTVL
B13: antibody 480 (antibody, V domains shown)
VH: B2 VH with T19R, L50V, F70I, A97V, R105Y, T106A
VL: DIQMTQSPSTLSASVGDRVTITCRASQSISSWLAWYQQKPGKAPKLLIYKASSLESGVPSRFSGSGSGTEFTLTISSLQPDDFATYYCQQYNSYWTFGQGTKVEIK
B14: antibody 471 (antibody, V domains shown)
VH: QVQLVESGGGVVQPGRSLRLSCAASGFTFSSYAMHWVRQAPGKGLEWVAVISYDGSNKYYADSVKGRFTISRDNSKNTLYLQMNSLRAEDTAVYYCAKQYSPYCSGGSCYSGASDYWGQGTLVTVSS
VL: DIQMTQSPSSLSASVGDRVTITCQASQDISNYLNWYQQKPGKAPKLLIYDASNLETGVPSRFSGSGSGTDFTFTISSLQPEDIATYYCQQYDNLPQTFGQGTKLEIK
B15: antibody 504 (antibody, V domains shown)
VH: QVQLVESGGGVVQPGRSLRLSCAASGFTFSSYGMHWVRQAPGKGLEWVAVISYDGSNKYYADSVKGRFTISRDNSKNTLYLQMNSLRAEDTAVYYCAKGGGGGYCSGGSCYSHYFDYWGQGTLVTVSS
VL: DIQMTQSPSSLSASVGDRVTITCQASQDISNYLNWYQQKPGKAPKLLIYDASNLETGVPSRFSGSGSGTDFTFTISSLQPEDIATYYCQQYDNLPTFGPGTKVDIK
B16: antibody 510 (antibody, V domains shown)
VH: QVQLQESGPGLVKPSQTLSLTCTVSGGSISSGSYYWSWIRQPAGKGLEWIGRIYTSGSTNYNPSLKSRVTISVDTSKNQFSLKLSSVTAADTAVYYCAREGQWLYRFDYWGQGTLVTVSS
VL: QSALTQPASVSGSPGQSITISCTGTSSDVGNYDLVSWYQQHPGKAPKLVIYGVTKRPSGVSNRFSGSKSGNTASLTISGLQAEDEADYYCCSYATGDTSVFGTGTKVTVL
B17: antibody 474 (antibody, V domains shown)
VH: EVQLVESGGGLVQPGGSLRLSCAASGFTFSSYWMHWVRQAPGKGLVWVSRINSDGSSTSYADSVKGRFTISRDNAKNTLYRQMNSLRAEDTAVYYCALGPLDIVGSYYYYGMDVWGQGTTVTVSS
VL: NFMLTQPHSVSESPGKTVTISCTGSSGSIASNYVQWYQQRPGSAPTTVIYEDNQRPSGVPDRFSGSIDSSSNSASLTISGLKTEDEADYYCQSYDSSNQDVVFGGGTKLTVL
B18: antibody 477 (antibody, V domains shown)
VH: QVQLVESGGGVVQPGRSLRLSCAASGITFSSYAMHWVRQAPGKGLEWVAVISYDGSDKYHADSVKGRFAISRDNSKNTLYLQMNSLRAEDTAVYYCAKDKGIAVAGTGWIRPDPEYYFDYWGQGTLVTVSS
VL: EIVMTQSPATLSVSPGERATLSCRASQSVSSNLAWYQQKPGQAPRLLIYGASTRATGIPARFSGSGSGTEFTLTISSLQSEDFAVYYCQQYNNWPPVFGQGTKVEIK
B19: antibody 470 (antibody, V domains shown)
VH: not shown
VL: QSALTQPASVSGSPGQSITISCTGTSSDVGSYNLVSWYQQHPGKAPKLMIYEVSKRPSGVSNRFSGSKSGNTASLTISGLQAEDEADYYCCSYAGSSTLVFGGGTKLTVL
B20: antibody 496 (antibody, V domains shown)
VH: QVQLVQSGAEVKKPGASVKVSCKASGYTFTDYYIHWVRQAPGQGLEWMGWINPNSGGTNYAQKFQGRLTMTRDTSISTAYMELSRLRSDDTAVYYCARVYSMFREFIINPYYYYYGLDVWGQGTTVTVSS
VL: B19 VL with G15R, V53G, T76A, D87N
B21: antibody 497 (antibody, V domains shown)
VH: QVQLQESGPGLVKPSQTLSLTCTVSGGSINSFGYYWSWIRQHPGKGLEWIGYIYYSGSTDYNPSLNSRVTISLDTSKNQFLLKLTSVTAADTAVYYCAKLTDYYDSSGYSFDYWGQGTLVTVSS
VL: B3 VL with G28D, S31R, S65R, D70E, F71L, Y87F, N92Y, L96F
B22: antibody 475 (antibody, V domains shown)
VH: QVQLVESGGGVVQPGRSLRLSCAASGFTFSSYAMHWVRQAPGKGLEWVTFISHEGSNKYYADSVKGRFTISRDNSKNTLYLQMNSLRAEDTAVYYCARTFEYSSSSATGDFDYWGQGTLVTVSS
VL: QSVLTQPPSVSGAPGQRVTISCTGSSSNIGAGYDVHWYQQLPGTAPKLLIYGNSNRPSGVPDRFSGSKSGTSASLAITGLQAEDEADYYCQSYDSSLSGVVFGGGTKLTVL

molecular target: SARS-CoV-2 full length spike protein, V483A mutant (SARS-CoV-2, UniProt P0DTC2 14-1273)

| Binder | median fluorescence intensity, fold over isotype control [fold over isotype] |
| --- | --- |
| B1 | 10 |
| B2 | 10.2 |
| B3 | 21.3 |

molecular target: SARS-CoV-2 full length spike protein, D614G mutant (SARS-CoV-2, UniProt P0DTC2 14-1273)

| Binder | median fluorescence intensity, fold over isotype control [fold over isotype] |
| --- | --- |
| B4 | 8.03 |
| B5 | 6.88 |

molecular target: SARS-CoV-2 full length spike protein, V367F mutant, expressed on CHO cells (SARS-CoV-2, UniProt P0DTC2 14-1273)

| Binder | median fluorescence fold over isotype control [fold over isotype] |
| --- | --- |
| B6 | 6.69 |
| B7 | 35.3 |
| B8 | 31.6 |
| B9 | 43.6 |

molecular target: SARS-CoV-2 full length spike protein, D614G mutant, expressed on CHO cells (SARS-CoV-2, UniProt P0DTC2 14-1273)

| Binder | median fluorescence fold over isotype control [fold over isotype] |
| --- | --- |
| B6 | 15.9 |
| B7 | 9.47 |
| B8 | 64.3 |
| B9 | 67.9 |

molecular target: SARS-CoV-2 full length spike protein, V483A mutant, expressed on CHO cells (SARS-CoV-2, UniProt P0DTC2 14-1273)

| Binder | median fluorescence intensity, fold over isotype control [fold over isotype] |
| --- | --- |
| B10 | 11.4 |
| B11 | 14.1 |
| B12 | 7.71 |
| B13 | 10.7 |
| B14 | 2.75 |
| B15 | 2.47 |
| B16 | 1.06 |
| B17 | 1.05 |
| B18 | 23.9 |
| B19 | 7.63 |
| B20 | 12.6 |
| B21 | 22.2 |
| B22 | 20.2 |

Source: patent US20210292393A1 (published 2021)
